From patent publication US20190062396A1

Molecular target: thyrotropin receptor (TSHR) (UniProt P16473)
Experiment: cell-based or functional assay

Sequence of UniProt P16473 (P16473 21-764 limits assumed): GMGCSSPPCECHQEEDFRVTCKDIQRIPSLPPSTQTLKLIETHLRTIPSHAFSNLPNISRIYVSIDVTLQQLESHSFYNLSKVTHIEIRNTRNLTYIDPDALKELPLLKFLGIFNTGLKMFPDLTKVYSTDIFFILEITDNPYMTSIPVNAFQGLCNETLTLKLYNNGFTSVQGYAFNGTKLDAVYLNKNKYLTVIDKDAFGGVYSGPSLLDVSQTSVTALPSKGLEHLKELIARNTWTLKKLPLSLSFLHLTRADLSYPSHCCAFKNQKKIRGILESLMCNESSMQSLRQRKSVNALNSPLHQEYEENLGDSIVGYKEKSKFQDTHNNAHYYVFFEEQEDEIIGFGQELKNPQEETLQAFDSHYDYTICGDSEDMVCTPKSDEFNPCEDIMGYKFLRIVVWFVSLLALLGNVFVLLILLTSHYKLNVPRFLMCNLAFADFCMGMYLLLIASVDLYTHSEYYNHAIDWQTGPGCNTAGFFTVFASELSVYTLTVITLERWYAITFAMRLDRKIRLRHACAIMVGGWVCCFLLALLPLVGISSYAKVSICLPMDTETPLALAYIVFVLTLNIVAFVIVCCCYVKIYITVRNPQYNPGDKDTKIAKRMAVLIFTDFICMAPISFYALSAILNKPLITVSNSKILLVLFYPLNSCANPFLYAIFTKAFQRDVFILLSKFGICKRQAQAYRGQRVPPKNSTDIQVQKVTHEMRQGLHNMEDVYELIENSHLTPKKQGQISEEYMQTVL

In the case of “recombinant human thyroid stimulating hormone (rhTSH) produced and purified by the method of the invention (from UniProt P01215 25-116; P01222 21-138) (ligand)”, the EC50 of cAMP induction (RLU, HitHunter cAMP XS+ luminescence) in CHO-K1 cells expressing TSHR, relative to the control group (Thyrogen) is reported as 99%.
